Measurements published in patent US10752675B2, “Compounds for treating the remyelination blockade in diseases associated with the expression of HERV-W envelope protein” (GENEURO S.A., priority 2012, dated 2020).
Entries after “also recorded” stand apart in the source; their conditions may differ.

Legend:
human OPC = test: Expression of MBP in human OPC in primary culture stimulated by MSRV-Env, with or without GNbAC1 (immunocytochemistry); format: cell-based; details: for MBP positive cells, normalized to control condition (buffer = 100%): pooled data
Method: Full length recombinant MSRV-Env was produced and purified by PX′Therapeutics (548 aa; 61.44 KDa) (batch 110719-1). The initial concentration was 0.6 mg/ml (9.76 μM). MSRV-Env Buffer (20 mM Trizma-HCl, pH 7.5, 150 mM NaCl, 1.5% SDS, 10 mM DTT) was provided by PX′Therapeutics. This solution was used as a negative control. GNbAC1 (Batch T96/bAC1/B1; GMP production) was produced and purified by Polymun Scientific, Vienna, Austria. The initial concentration was 10 mg/ml (68.03 μM).
Human OPC were stimulated with the different treatments either by coating solutions on the cell culture plate surface before cells seeding or by adding them in the cell culture medium after cells seeding. In any case, labtek 8-wells chamber slides (Nunc) were previously coated with poly-L-lysine (Sigma-Aldrich) overnight at 37° C.
The different treatments were diluted in PBS under a sterile laminar flow hood (Fischer Bioblock, France) and the Labtek 8 wells chambers slides (Nunc; 250 μl per well) were coated as follows: • MSRV-Env (1 μg/ml) coated for 2 hours at 37° C. • MSRV-Env Buffer (same dilution than MSRV-Env) coated for 2 hours at 37° C. • MSRV-Env+GNbAC1 A1: MSRV-Env (1 μg/ml) and GNbAC1 (7.35 μg/ml=50 nM) mixture coated for 2 hours at 37° C. • MSRV-Env+GNbAC1 A2: MSRV-Env (1 μg/ml) and GNbAC1 (29.4 μg/ml=200 nM) mixture coated for 2 hours at 37° C. • MSRV-Env+GNbAC1 B1: MSRV-Env (1 μg/ml) coated for 2 hours at 37° C., washed with PBS and subsequently coated with GNbAC1 (7.35 μg/ml=50 nM) for 1 hour at 37° C. • MSRV-Env+GNbAC1 B2: MSRV-Env (1 μg/ml) coated for 2 hours at 37° C., washed with PBS and subsequently coated with GNbAC1 (29.4 μg/ml=200 nM) for 1 hour at 37° C. • GNbAC1 A1 alone: GNbAC1 (7.35 μg/ml=50 nM) coated for 2 hours at 37° C. • GNbAC1 A2 alone: GNbAC1 (29.4 μg/ml=200 nM) coated for 2 hours at 37° C. • GNbAC1 B1 alone: PBS for 2 hours at 37° C., then coated with GNbAC1 (7.35 μg/ml=50 nM) for 1 hour at 37° C. • GNbAC1 B2 alone: PBS for 2 hours at 37° C., then coated with GNbAC1 (29.4 μg/ml=200 nM) for 1 hour at 37° C. • BSA (1 μg/ml) coated for 2 hours at 37° C. • BSA+GNbAC1 A1: BSA (1 μg/ml) and GNbAC1 (7.35 μg/ml=50 nM) mixture coated for 2 hours at 37° C. • BSA+GNbAC1 A2: BSA (1 μg/ml) and GNbAC1 (29.4 μg/ml=200 nM) mixture coated for 2 hours at 37° C. • BSA+GNbAC1 B1: BSA (1 μg/ml) coated for 2 hours at 37° C., washed with PBS and subsequently coated with GNbAC1 (7.35 μg/ml=50 nM) for 1 hour at 37° C. • BSA+GNbAC1 B2: BSA (1 μg/ml) coated for 2 hours at 37° C., washed with PBS and subsequently coated with GNbAC1 (29.4 μg/ml=200 nM) for 1 hour at 37° C. Human Oligodendrocyte Precursor Cells Culture
The vial containing the human OPC was placed in a 37° C. water bath and gently agitated by rotation until the content was completely thawed. The cells were gently resuspended with a 1 ml Gilson pipette. Then, they were diluted in complete OPCM, and seeded into the 8-wells labtek culture vessels (7000 cells/cm^2=10000 cells per well) previously coated with poly-L-lysine (0.01%, Sigma) and with (or without) the treatments described above (see 3.2.1.1) under a sterile laminar flow hood (Fischer Bioblock, France). The cultures were incubated at 37° C.; 5% CO2 until subsequent immunocytochemistry experiments. The growth medium was changed the next day to remove the residual DMSO and unattached cells in the cultures treated for 72 hours.
After 3 hours of pre-cultivation (see 3.2.1.2) of the human OPC in the 8-well labtek culture vessels, the cells were incubated at 37° C. for 24 hours or 72 hours in 8-wells labteks (250 μl/well) with the addition of the following solutions: • MSRV-Env Buffer, used as a negative control, added in complete cell culture medium • MSRV-Env added at 3 nM (0.184 μg/ml) in complete cell culture medium • MSRV-Env (3 nM)+GNbAC1 (200 nM; 29.4 μg/ml) mixture added in complete cell culture medium • GNbAC1 (200 nM) alone added in complete cell culture medium Expression of TLR4 and Myelination Markers in OPC In Vitro […]

[1] = system: MSRV-Env induced EAE in C57BL/6 mice; test: EAE clinical score, Example 3.C (GNbAC1 and Sodium Fumarate); format: in vivo
From the text: Animals were weighed and clinically scored 5 days per week according to the following criteria: 0=no signs; 1=tail paralysis or hyper-reflex of hind limb(s) or unilateral hind limb weakness; 2=bilateral hind limb or forelimb weakness; 3=plus unilateral paralysis or major deficit; 4=complete hind limb or forelimb paralysis; 5=plus partial paralysis or major deficit of opposite limbs; 6=moribund or dead. These were adapted from standard criteria, in order to reflect the more rapid induction of brain and cervical cord lesions with this model.

B1: GNbAC1: recombinant humanized anti-Env IgG4 monoclonal antibody comprising the CDRs of SEQ ID No. 1 to 6 (antibody, chains of the INN, looked up, V domains shown)
VH: QVQLVQSGAEVKKPGSSVKVSCKASGYTFTDYEMHWVRQAPGQGLEWIGAVAPETGGTAYNQKFKGRATITADKSTSTAYMELSSLRSEDTAVYYCTSTVVPFAYWGQGTLVTVSS
VL: QIQLTQSPSSLSASVGDRVTITCSASSSVSYMYWYQQKPGKAPKAWIYRTSNLASGVPSRFSGSGSGTDYTLTISSLQPEDFATYYCQQYQSLPLTFGGGTKVEIK
effect on the decrease of MBP positive cells induced by coated MSRV-Env (human OPC; GNbAC1 50 nM, both protocols, 72 hours): partial effect; also recorded: partially inhibits MSRV-Env effect | effect on the decrease of MBP positive cells induced by coated MSRV-Env (human OPC; GNbAC1 200 nM, both protocols, 72 hours): complete inhibition | effect on the inhibition of MBP expression induced by coated MSRV-Env (human OPC; GNbAC1 200 nM, both protocols, 72 hours, OPC ICC 03): completely reverses | percentage of MBP positive cells (human OPC; GNbAC1-A 50 nM, coated MSRV-Env 1 μg/ml, 72 hours, OPC ICC 02): 69±2% | MBP positive cells, normalized to control condition (buffer = 100%) (human OPC; GNbAC1-A 200 nM with coated MSRV-Env): 101±2% | percentage of MBP positive cells (human OPC; GNbAC1-A 200 nM, coated MSRV-Env 1 μg/ml, 72 hours, OPC ICC 02): 73±2% | percentage of MBP positive cells (human OPC; GNbAC1-A 200 nM, coated MSRV-Env 1 μg/ml, 72 hours, OPC ICC 03): 80±2% | percentage of MBP positive cells (human OPC; GNbAC1-B 50 nM, coated MSRV-Env 1 μg/ml, 72 hours, OPC ICC 02): 68±2% | MBP positive cells, normalized to control condition (buffer = 100%) (human OPC; GNbAC1-B 200 nM with coated MSRV-Env): 97±2% | percentage of MBP positive cells (human OPC; GNbAC1-B 200 nM, coated MSRV-Env 1 μg/ml, 72 hours, OPC ICC 02): 74±2% | percentage of MBP positive cells (human OPC; GNbAC1-B 200 nM, coated MSRV-Env 1 μg/ml, 72 hours, OPC ICC 03): 75±2% | percentage of MBP positive cells (human OPC; MSRV-Env 3 nM + GNbAC1 200 nM in culture medium, 72 hours): 76±2% | effect on the decrease of MBP expression induced by MSRV-Env in culture medium (human OPC; MSRV-Env 3 nM, GNbAC1 200 nM, 72 hours): inhibits completely this effect | EAE clinical score kinetics and endpoint ([1]; from day 12: GNbAC1 500 μg IP, Sodium Fumarate 10 mg daily in 3.5 ml drinking water, versus isotype control antibody): significant reversion of their clinical score curves; also recorded: equivalent and significantly good recovery at the end of the study | day from which clinical improvement appeared ([1]; treatment started day 12): 15 days
